Laboratory results taken from article PMC4218953 (2014).

Assays:
[1] = molecular target: vacant 70S ribosomes from E. coli MRE600 (E. coli); assay: FRET; 4°C; 70S labelled at L23 with MDCC
[2] = molecular target: vacant 70S ribosomes from E. coli MRE600 (E. coli); assay: FRET; 25°C; 70S labelled at L23 with MDCC
[3] = molecular target: Lep75-RNC (ribosome-nascent-chain complex carrying 75 N-terminal amino acids of leader peptidase) (E. coli | , UniProt P00803 1-75, f[3H]Met at the N-terminus; nascent chain bound to tRNA); assay: 25°C
[4] = molecular target: vacant 70S ribosomes from E. coli MRE600 (E. coli); assay: 25°C

Row | Binder | Kd [1] [nM] | Kd [2] [nM] | Kd [3] [nM] | Kd [4] [nM]
1 | single-labelled SecYEG(Bpy) (complex, BODIPY FL (maleimide derivative) on Cys87) chain 1: MAKQPGLDFQSAKGGLGELKRRLLFVIGALIVFRIGSFIPIPGIDAAVLAKLLEQQRGTIIEMFNMFSGGALSRASIFALGIMPYICASIIIQLLTVVHPTLAEIKKEGESGRRKISQYTRYGTLVLAIFQSIGIATGLPNMPGMQGLVINPGFAFYFTAVVSLVTGTMFLMWLGEQITERGIGNGISIIIFAGIVAGLPPAIAHTIEQARQGDLHFLVLLLVAVLVFAVTFFVVFVERGQRRIVVNYAKRQQGRRVYAAQSTHLPLKVNMAGVIPAIFASSIILFPATIASWFGGGTGWNWLTTISLYLQPGQPLYVLLYASAIIFFCFFYTALVFNPRETADNLKKSGAFVPGIRPGEQTAKYIDKVMTRLTLVGALYITFICLIPEFMRDAMKVPFYFGGTSLLIVVVVIMDFMAQVQTLMMSSQYESALKKANLKGYGR chain 2: MSANTEAQGSGRGLEAMKWVVVVALLLVAIVGNYLYRDIMLPLRALAVVILIAAAGGVALLTTKGKATVAFAREARTEVRKVIWPTRQETLHTTLIVAAVTAVMSLILWGLDGILVRLVSFITGLRF chain 3: MYEALLVVFLIVAIGLVGLIMLQQGKGADMGASFGAGASATLFGSSGSGNFMTRMTALLATLFFIISLVLGNINSNKTNKGSEWENLSAPAKTEQTQPAAPAKPTSDIPN | 10 | 20 | – | –
2 | double-labelled SecYEG(Bpy/Trp) (complex, BODIPY FL (maleimide derivative) on Cys87) chain 1: MAKQPGLDFQSAKGGLGELKRRLLFVIGALIVFRIGSFIPIPGIDAAVLAKLLEQQRGTIIEMFNMFSGGALSRASIFALGIMPYICASIIIQLLTVVHPTLAEIKKEGESGRRKISQYTRYGTLVLAIFQSIGIATGLPNMPGMQGLVINPGFAFYFTAVVSLVTGTMFLMWLGEQITERGIGNGISIIIFAGIVAGLPPAIAHTIEQARQGDLHFLVLLLVAVLVFAVTFFVVFVERGQRRIVVNYAKRQQGRRVYAAQSTHLPLKVNMAGVIPAIFASSIILWPATIASWFGGGTGWNWLTTISLYLQPGQPLYVLLYASAIIFFCFFYTALVFNPRETADNLKKSGAFVPGIRPGEQTAKYIDKVMTRLTLVGALYITFICLIPEFMRDAMKVPFYFGGTSLLIVVVVIMDFMAQVQTLMMSSQYESALKKANLKGYGR chain 2: MSANTEAQGSGRGLEAMKWVVVVALLLVAIVGNYLYRDIMLPLRALAVVILIAAAGGVALLTTKGKATVAFAREARTEVRKVIWPTRQETLHTTLIVAAVTAVMSLILWGLDGILVRLVSFITGLRF chain 3: MYEALLVVFLIVAIGLVGLIMLQQGKGADMGASFGAGASATLFGSSGSGNFMTRMTALLATLFFIISLVLGNINSNKTNKGSEWENLSAPAKTEQTQPAAPAKPTSDIPN | – | – | 10 | 20
